Test results taken from US20150056134A1 (MABVAX THERAPEUTICS, published 2015).
Numbering of substitutions follows the chain as printed.

B1: 7E3 human anti-sLe^a monoclonal antibody (antibody, V domains shown)
VH: QVQLLESGGGVVQPGRSLRLSCAASGFTFSFYGMHWVRQAPGKGLEWVAAISYDGSNKYYADSVKGRFTISRDNSKNTLYLQMNSLRAEDTAVYYCAKRPNQFYCSDGRCYSIDYWGQGTLVTVSS
VL: not shown
notes: Human IgM/kappa, tested as hybridoma supernatant; also called EF41-7E3; EF41-7E3 (M)
B2: 5B1 human anti-sLe^a monoclonal antibody (antibody, V domains shown)
VH: QVQLVESGGGSVQPGRSLRLSCEASGFTFEAYAMHWVRQPPGKGLEWVSSINWNSGRIAYADSVKGRFTISRDNARNSLYLQMNSLRLEDTAFYYCAKDIRRFSTGGAEFEYWGQGTLVTVSS
VL: QSVLTQPPSASGTPGQRVTISCSGSSSNIGSNFVYWYQQLPGTAPKLLIYRNNQRPSGVPDRFSGSRSGTSASLAISGLRSEDEADYYCAAWDDSLGGHYVFGTGTKVTVL
notes: Human IgG1/lambda; The ADCC assay used recombinant r5B1 made in CHO cells from a full-length IgG1 vector; also called EF41-5B1; EF41-5B1(G)
B3: 5H11 human anti-sLe^a monoclonal antibody (antibody, IgG1, V domains shown)
VH: QVQLLESGGGLVQPGRSLRLSCAASGFTFDEYAMHWVRQAPGKGLEWVSSVSWNSGSIGYADSVKGRFTISRDNAKNSLYLQMNSLRAEDTALYYCAKDIRTYSTGGAEFASWGQGTLVTASS
VL: B2 VL with F33Y, L40V, R67K, G97S
notes: Human IgG/lambda (IgG1), tested as hybridoma supernatant; also called EF41-5H11; EF41-5H11(G)
B4: 9H3 human anti-sLe^a monoclonal antibody (antibody, IgG1, V domains shown)
VH: EVQLLESGGGLVQPGRSLRLSCAASGFTFDDYVMHWVRQAPGKGLEWVSSISWNSGSIGYADSVKGRFIISRDNAKNSLYLQMNSLRAEDTALYYCAKDRRIRGDSGFEGDYWGQGTLVTVSS
VL: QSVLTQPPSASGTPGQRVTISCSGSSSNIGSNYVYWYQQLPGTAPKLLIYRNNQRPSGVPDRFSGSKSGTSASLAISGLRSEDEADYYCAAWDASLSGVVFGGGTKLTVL
notes: Human IgG/lambda (IgG1), tested as hybridoma supernatant; also called EF41-9H3; EF41-9H3 (G)

target: T1, Neutral Avidin (UniProt P02701 25-152); assay: ELISA, hybridoma supernatant on NeutrAvidin-coated control wells without sLe^a
T1 construct: Control coating without captured biotinylated sLe^a; also called NAV; Neutr-Avidin
T1 sequence (P02701 25-152 limits assumed): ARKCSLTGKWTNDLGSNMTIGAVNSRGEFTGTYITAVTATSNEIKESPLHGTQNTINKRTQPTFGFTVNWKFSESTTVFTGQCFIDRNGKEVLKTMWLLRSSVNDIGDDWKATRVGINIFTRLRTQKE

OD (490 nm), 0.05 OD (490 nm):
B1, B2, B3, B4
